From paper PMC10168641

Target: NcCAR reductase (R) domain, NcCAR^Δ1–649 (Neurospora crassa)
Assay: SAXS; R-domain in solution; best fit of the experimental data as a mixture of monomer and dimer

NcCAR reductase (R) domain, NcCAR^Δ1–649 (domain or fragment)
percent dimer in solution: 69%
percent monomer in solution: 31%
stoichiometry N: 2
